This is an account of results in paper doi:10.1101/2023.06.06.543969 (2023).

Common to all, as to assay: BLI
On the technique in general: Biolayer interferometry detects binding as a change in optical thickness at a sensor tip.

The target of assay [1] is His-tagged HIV Env MPER peptide (HIV).
For assay [2], the target named is T1, biotinylated αTSR domain of P. falciparum circumsporozoite protein (P. falciparum, biotinylated).
T1 chain: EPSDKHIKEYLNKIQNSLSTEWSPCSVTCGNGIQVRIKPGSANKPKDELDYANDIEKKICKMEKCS

Assay [3] deals with HCV (isolate H77) E2 domain (HCV (isolate H77)).
The target of assay [4] is His6-tagged SARS-CoV-2 receptor-binding domain (SARS-CoV-2, UniProt P0DTC2).
For assay [5], the target named is T2, influenza hemagglutinin (HA) from H1N1 A/California/07/2009 (influenza A virus H1N1 …).
In assay [6] the target is T3, biotinylated SARS-CoV-2 fusion peptide (SARS-CoV-2, biotin on the N-terminus).
T3 peptide: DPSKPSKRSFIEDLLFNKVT

Assay [7] concerns the target T2, influenza hemagglutinin (HA) from H1N1 …. The source holds these as a separate data set.

Where a chain is given by its changes, count along the chain named. Numbers in names are those of the source. Like-named read-outs stand apart in the source and are kept apart here.

Broadly, the Kd is the free concentration of one partner at which half of the binding sites on the other are occupied at equilibrium, for simple one-to-one binding.

B1: 4E10 Fab (WT) (Fab, V domains shown)
VH: QVQLVQSGAEVKRPGSSVTVSCKASGGSFSTYALSWVRQAPGRGLEWMGGVIPLLTITNYAPRFQGRITITADRSTSTAYLELNSLRPEDTAVYYCAREGTTGWGWLGKPIGAFAHWGQGTLVTVSS
VL: EIVLTQSPGTQSLSPGERATLSCRASQSVGNNKLAWYQQRPGQAPRLLIYGASSRPSGVADRFSGSGSGTDFTLTISRLEPEDFAVYYCQQYGQSLSTFGQGTKVEVK
B1 yielded a dissociation constant Kd in assay [1] of 9.1 nM.

B2: Fab234 (WT) (Fab, V domains shown)
VH: EVQLVESGGGLVKPGGSLRLSCAASGFNFSTHIMNWVRQAPGKGLEWVSSISSSGTYIYYADSMKGRFTISRDNPKNSLYLQMNSLRAEDTAVYYCARARGFIQFHYYMDVWGKGTTVAVSS
VL: SYVLTQPPSVSVAPGKTARITCGGNNIGSKSVHWHQQRPGQAPVLVVYDDKIRPSGIPERFSGSNSGNTATLIISRVEAGDEADYYCQVWHSSSDPVVFGGGTKLTVL
B2 gave a Kd in assay [2] of 0.2 nM. That is a sub-nanomolar value.

B3: HC84.26.5D Fab (WT) (Fab, V domains shown)
VH: VQPVQSGAEVKKPGSSVKVSCEASGGTHSNYVITWVRQAPGQGLEWMGGFIPDFRTAMYAQGFQGRVTITADESTSLAYMELTNLRSEDTAVYYCARGPLSRGYYDYWGPGTLVTVSS
VL: YVLTQPPSVSVAPGQTASITCSGDKLGDKYVSWYQQRPGQSPVLVLYQDSKRPSGIPERFSGSNSGNTATLTISGTQAMDEADYYCQAWDSSALVFGGGTKLTVL
Regarding B3, in assay [3], the Kd came out at 0.9 nM.

B4: GAR12 Fab (WT) (Fab, V domains shown)
VH: EVQLVQSGGGLVQPGGSLRLSCAASGFTFSSYAMSWVRQAPGKGLEWVLSISGSGGSTYYADSVKGRFTISIDNSKKTVYLQMNSLRAEDTAVYYCAKSGEQQLVQAEYFHHWGQGTLVTVSS
VL: DIQMTQSPSTLSASVGDRVTITCRASQSIGRWLAWYQQKPGKAPKLLIYDASSLESGVPSRFSGSGFGTEFTLTISSLQPDDFATYYCQQCDSLLTFGGGTKLEIK
On to B4, for which, in assay [4], the affinity, expressed as Kd, was 3.5 nM. This lies in the single-digit nanomolar range.

B5: GAR12 Fab VL D50K (Fab, V domains shown)
VH: B4 VH
VL: B4 VL with D50K
In the case of B5, in assay [4], the dissociation constant (Kd) is 153 nM.

B6: 5J8 Fab (WT) (Fab, V domains shown)
VH: EVQLVESGPGLVKPSDILSLTCAVSGYSISSNYYWGWIRQPPGKGLEWIGSIYHSGSTYYKPSLESRLGISVDTSKNQFSLKLSFVSAADTAVYYCARHVRSGYPDTAYYFDKWGQGTLVTVSS
VL: SYVLTQPPSVSVAPGETARISCGGNNIGTKVLHWYQQTPGQAPVLVVYDDSDRPSGIPERFSGSNSGNTATLTISRVEVGDEADYYCQVWDISTDQAVFGGGTKLTVL
Regarding B6, binding in assay [5] was characterised by a dissociation constant (Kd) of 4 nM.

B7: COV44–62 Fab (WT) (Fab, V domains shown)
VH: QMQLMQSGAEVKKPGASVTVSCKASGDTFSDYRIHWVRQAPGQGLEWMGRMNPKSGDTNFAQKFQGRVTMTRDMSINTAYMTLSGLTFDDTALYYCASLLIVGGFDPLDDFEVWGQGTMVTISS
VL: QSALTQPPSASGSPGQSVTISCSGTSSDVGGYNFVSWYQHHPGKAPKILIYEVTKRPSGVPDRFSGSKSGNTASLTVSGLQAEDEADYYCSSYGGTNNLLFGGGTKLTVL
In the case of B7, the affinity in assay [6], expressed as Kd, was 26 nM.

B8: 3E1 Fab (WT) (Fab, V domains shown)
VH: QVQLQESGPGLVKPSETLSLTCSVSGASISSYYWIWIRQPAGKGLEWIGRFYTSGSPNYNPSLRSRVTMSVDTSKNQFSLKLTSVTAADTAVYYCAREEHITFGGVIVRYWGQGTLVTVSP
VL: DIQMTQSPATLSASVGDRVSITCRASQSISSWLAWYQQKPGKAPKLLIYKASSLESGVPSRFSGSGSGSEFTLTISSLQPDDFAIYYCQQYNSYPWTFGQGTKVEIK
Turning to B8, the affinity in assay [7], expressed as Kd, was 6.9 nM.
